Data set [1] concerns the target T1, Multidrug and toxin extrusion protein 2 (Homo sapiens, UniProt Q86VL8).
T1 sequence (Q86VL8 whole entry): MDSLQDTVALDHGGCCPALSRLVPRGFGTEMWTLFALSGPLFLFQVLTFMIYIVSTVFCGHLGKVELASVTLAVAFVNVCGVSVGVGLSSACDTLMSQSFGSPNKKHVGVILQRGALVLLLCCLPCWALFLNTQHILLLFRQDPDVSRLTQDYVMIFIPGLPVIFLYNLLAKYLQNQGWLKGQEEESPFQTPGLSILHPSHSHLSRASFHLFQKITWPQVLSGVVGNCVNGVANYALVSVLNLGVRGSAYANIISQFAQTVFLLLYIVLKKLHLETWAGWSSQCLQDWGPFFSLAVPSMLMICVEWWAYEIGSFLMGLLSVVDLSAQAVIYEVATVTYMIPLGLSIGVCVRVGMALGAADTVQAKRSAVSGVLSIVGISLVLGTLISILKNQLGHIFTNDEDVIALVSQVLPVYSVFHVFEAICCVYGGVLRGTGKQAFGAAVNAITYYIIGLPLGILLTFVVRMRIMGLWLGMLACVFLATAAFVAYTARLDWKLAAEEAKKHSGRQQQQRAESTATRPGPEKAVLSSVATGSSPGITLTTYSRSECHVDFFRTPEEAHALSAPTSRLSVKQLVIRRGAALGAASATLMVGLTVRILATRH
The data set can be described thus: Substrate activity at MATE2-K (unknown origin) expressed in HEK293 cells assessed as intrinsic clearance by measuring ratio of Vmax (maximum transport velocity) over Km measured per mg of protein by HPLC-MS/MS analysis. Type of data set: cell-based.

Data set [2] addresses T2, Multidrug and toxin extrusion protein 1 (Homo sapiens, UniProt Q96FL8).
T2 sequence (Q96FL8 whole entry): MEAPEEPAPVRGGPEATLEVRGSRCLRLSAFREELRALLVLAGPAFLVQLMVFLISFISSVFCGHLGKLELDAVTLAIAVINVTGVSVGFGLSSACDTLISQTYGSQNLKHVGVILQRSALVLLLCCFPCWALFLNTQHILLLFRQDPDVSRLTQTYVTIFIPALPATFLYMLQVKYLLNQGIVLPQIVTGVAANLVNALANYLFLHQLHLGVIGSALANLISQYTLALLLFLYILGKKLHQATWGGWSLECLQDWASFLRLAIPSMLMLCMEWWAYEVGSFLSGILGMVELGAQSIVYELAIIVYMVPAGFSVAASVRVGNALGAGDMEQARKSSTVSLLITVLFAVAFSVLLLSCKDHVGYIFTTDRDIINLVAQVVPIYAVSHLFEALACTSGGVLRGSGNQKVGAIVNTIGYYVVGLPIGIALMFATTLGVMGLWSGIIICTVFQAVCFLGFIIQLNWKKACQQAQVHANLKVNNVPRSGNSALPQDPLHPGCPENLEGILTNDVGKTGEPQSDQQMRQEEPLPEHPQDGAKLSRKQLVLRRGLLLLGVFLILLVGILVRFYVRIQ
The data set can be described thus: Substrate activity at MATE1 (unknown origin) expressed in HEK293 cells assessed as Vmax (maximum transport velocity) by HPLC-MS/MS analysis. The format is cell-based.

The target in data set [3] is T3, MATE2-K (Homo sapiens, UniProt Q86VL8).
T3 sequence (Q86VL8 whole entry): T1 sequence (Q86VL8 whole entry)
The data set can be described thus: (§1) Substrate activity at MATE2-K (unknown origin) expressed in HEK293 cells assessed as substrate concentration to achieve half of Vmax (maximum transport velocity) measured per mg of protein by HPLC-MS/MS analysis. The format is cell-based. Conditions: HEK293 cells expressing MATE2-K.

The target in data set [4] is T2, Multidrug and toxin extrusion protein 1. Nature of the data set: Substrate activity at MATE1 (unknown origin) expressed in HEK293 cells assessed as intrinsic clearance by measuring ratio of Vmax (maximum transport velocity) over Km measured per mg of protein by HPLC-MS/MS analysis. Type of data set: cell-based.
Data set [5] addresses T1, Multidrug and toxin extrusion protein 2. Nature of the data set: Substrate activity at MATE2-K (unknown origin) expressed in HEK293 cells assessed as Vmax (maximum transport velocity) by HPLC-MS/MS analysis. Type of data set: cell-based.
Substrate in data set [6]: C[N+]1(CC2CC2)CC[C@]23c4c5ccc(O)c4O[C@H]2C(=O)CC[C@@]3(O)[C@H]1C5
The description is as §1. Type of data set: cell-based, Homo sapiens.

Substrate in data set [7]: COCCn1c2c([n+](Cc3cnccn3)c1C)C(=O)c1ccccc1C2=O
The data set is described as §1. Type of data set: cell-based, Homo sapiens.

Substrate in data set [8]: C[C@H]1N=C(N(C)C)N=C(N)N1
The description is as §1. The format is cell-based, Homo sapiens.

Substrate in data set [9]: CCN1CCCC1CNC(=O)c1cc(S(=O)(=O)CC)c(N)cc1OC
Described as §1. Type of data set: cell-based, Homo sapiens.

Substrate in data set [10]: c1c2c(cc3c1OCO3)-c1cc3ccc4c(c3c[n+]1CC2)OCO4
The data set is described as §1. Type of data set: cell-based, Homo sapiens.

Substrate in data set [11]: CN(C)C(=O)Oc1cccc([N+](C)(C)C)c1
The data set is described as §1. Type of data set: cell-based, Homo sapiens.

Substrate in data set [12]: CC(CCc1ccc(O)cc1)NCCc1ccc(O)c(O)c1
The description is as §1. The format is cell-based, Homo sapiens.

Substrate in data set [13]: Cc1ncc(C[n+]2csc(CCO)c2C)c(N)n1
Nature of the data set: not read.

Substrate in data set [14]: CC(C)NC[C@@H](O)COc1ccc(CC(N)=O)cc1
The data set can be described thus: not read.

Substrate in data set [15]: NCCc1ccc(O)c(O)c1
The data set can be described thus: not read.

Substrate in data set [16]: CN(C)CCc1c[nH]c2ccc(C[C@H]3COC(=O)N3)cc12
Nature of the data set: not read.

Substrate in data set [17]: Cc1ncc(CO)c(CO)c1O
The data set can be described thus: not read.

Substrate in data set [18]: Nc1nc(=O)n([C@@H]2CS[C@H](CO)O2)cc1F
The data set can be described thus: not read.

Substrate in data set [19]: CNC[C@H](O)c1ccc(O)c(O)c1
Nature of the data set: not read.

`CN(C)CCc1c[nH]c2ccc(C[C@@H]3COC(=O)N3)cc12`: the CL in data set [1] amounted to 54.2 µL/min; in [4] it was 94.5 µL/min. For the same molecule, the values for the Vmax in data set [2] and in data set [5] were 2624 pmol/min and 992 pmol/min, respectively. In addition, the Km in [3] came out at 18.3 µM.

B1: Multidrug and toxin extrusion protein 2 (Homo sapiens) (protein)
chain: T1 sequence (Q86VL8 whole entry)
For B1, the Km in data set [6] is 86.8 µM; in data set [7] it was 8.54 µM; in data set [8], 81.6 µM; in data set [9], 39.9 µM; in data set [10], 1.88 µM; in data set [11] it was 385 µM. In addition, the Km in data set [12] came to 86.4 µM; in data set [14], 181 µM; in [15] it was 961 µM; in [16], 94.5 µM; in [17], 495 µM; in data set [18] it was 873 µM. Besides, the Km in data set [19] was found to be 1510 µM. Also, the Vmax in data set [6] is 4.16e-05 µmol/min; in data set [7], 7.85e-05 µmol/min; in data set [8] it was 0.00281 µmol/min; in data set [9] it was 0.00071 µmol/min; in [10], 0.000246 µmol/min; in data set [11] it was 0.00314 µmol/min. Also, the Vmax in data set [12] came out at 0.000493 µmol/min; in data set [13] it was 0.000109 µmol/min; in data set [14] it was 0.00296 µmol/min; in data set [15], 0.00122 µmol/min; in data set [16], 0.00166 µmol/min; in data set [17], 0.000593 µmol/min. Besides, the Vmax in data set [18] amounted to 0.00263 µmol/min; in data set [19] it was 0.00297 µmol/min.

The term Vmax denotes the rate approached at saturating substrate. A word on the Km: it is the substrate concentration at which the rate is half of its maximum.

(Values after ChEMBL document CHEMBL6182944, “Substrate Specificity of the Organic Cation Transporters MATE1 and MATE2K and Functional Overlap with OCT1 and OCT2” (J Med Chem, 2025).)
